Paper PMC9841331 (The EMBO Journal, 2023)
Where a chain is given by its changes, count along the chain named. Where “and” joins values, the source holds several entries; their conditions need not be identical. Equal values may be shown once.

Key:
[1] = biological target: retromer^mRuby (yeast Vps26/Vps29/Vps35 complex labelled with mRuby) (S. cerevisiae, UniProt P40335 1-379; P38759 1-282; P34110 1-944); assay: fluorescence microscopy of recruitment to supported membrane tubes
native gel or EMSA = biological target: the molecule itself; assay: native gel or EMSA

B1: SNX-BAR complex (yeast sorting nexins Vps5/Vps17) (complex, S. cerevisiae)
chain 1: MDYEDNLEAPVWDELNHEGDKTQSLVSNSIESIGQISTNEERKDNELLETTASFADKIDLDSAPEWKDPGLSVAGNPQLEEHDNSKADDLINSLAPEQDPIADLKNSTTQFIATRESGGALFTGNANSPLVFDDTIYDANTSPNTSKSISGRRSGKPRILFDSARAQRNSKRNHSLKAKRTTASDDTIKTPFTDPLKKAEKENEFVEEPLDDRNERRENNEGKFTASVEKNILEQVDRPLYNLPQTGANISSPAEVEENSEKFGKTKIGSKVPPTEKAVAFKVEVKDPVKVGELTSIHVEYTVISESSLLELKYAQVSRRYRDFRWLYRQLQNNHWGKVIPPPPEKQSVGSFKENFIENRRFQMESMLKKICQDPVLQKDKDFLLFLTSDDFSSESKKRAFLTGSGAINDSNDLSEVRISEIQLLGAEDAAEVLKNGGIDAESHKGFMSISFSSLPKYNEADEFFIEKKQKIDELEDNLKKLSKSLEMVDTSRNTLAASTEEFSSMVETLASLNVSEPNSELLNNFADVHKSIKSSLERSSLQETLTMGVMLDDYIRSLASVKAIFNQRSKLGYFLVVIENDMNKKHSQLGKLGQNIHSEKFREMRKEFQTLERRYNLTKKQWQAVGDKIKDEFQGFSTDKIREFRNGMEISLEAAIESQKECIELWETFYQTNL
chain 2: MTSAVPYDPYDDLDNNPFAEPQEEDSEPAATTTDGSSSMSEERVGTEQTAASVQDNGTANNIQNGLGEEGNATRSKTSNEHNENQQPSQPSERVILPERSDEKKKYTLLAKVTGLERFGSATGKKENPTIIFDCSTNLPTFRKQQYKNVKKSYEEFHQLFKYLNVAIQESFVPTLPSAYTTFGINSEEDRMKVTRNFQLWFNRLSQDPLIIRNEEVAFFIESDFNTYTPINKSKSLASGLKRKTLKQLAPPYDEITELAEFRPLVKSIYVVSQSLQEKLLRVSRNRKMMVQEENAFGQDFVNLDEHNKLYRRYGKILTAVGDIDSIIATMDMATLYDGLEWIVRDAYAVKEALTNRHFIMRNLVQAQQNSKAKQEQARRFRSRRDINPMKIDEALRQLKAAAKNEQVLTLKLQRITSNMIIERKQWISWYEEWIRSSIKEFTLRKIEYERKKLTLLERVRSDIRKADENGGLSRLGRHAVSNNNSDTSQTLKGDSWTGESNRKSQIPINKIAHTEFDDELFTEDDGYNSQDSDTTSLNARHAASLLGMSTK
B1: binds [1].

B2: retromer^mClover (yeast Vps26/Vps29/Vps35 complex carrying mClover-tagged Vps29), wild-type Vps35 (complex, S. cerevisiae)
chain 1: MSIFFKPPIDIEILFDNEESRKHVDIATRSSNSSYKSMKESLPVYEDGESLGGIVTLRVRDSKKVDHLGIKVSVIGSIDMLKSHGSGNSSSKKVTSSTSSSSSNGSVDVRKNSVDQFLCQSYDLCPAGELQHSQSFPFLFRDLSKRYESYKGKNVDVAYYVKVTVMRKSTDISKIKRFWVYLYNSVTTAPNTLSANETKATTNDIAGGNYAADNASDNTQTKSTQGEAADVNQVLPISHSNNEPKPVRLDIGIENCLHIEFEYAKSQYSLKEVIVGRIYFLLTRLRIKHMELSLITRESSGLQTSNVMTDSTAIRYEIMDGSSVKGETIPIRLFLSGYDLTPNMSCNYFNVKNYLSLVIIDEDGRRYFKQSEITLYRTR
chain 2: MLLLALSDAHIPDRATDLPVKFKKLLSVPDKISQVALLGNSTKSYDFLKFVNQISNNITIVRGEFDNGHLPSTKKDKASDNSRPMEEIPMNSIIRQGALKIGCCSGYTVVPKNDPLSLLALARQLDVDILLWGGTHNVEAYTLEGKFFVNPGSCTGAFNTDWPIVFDVEDSDEAVTSEVDKPTKENQSEDDDAKGGSTGKEQPGSYTPKEGTAGERENENESNVKPENQFKEDEVDMSDSDINGSNSPSFCLLDIQGNTCTLYIYLYVNGEVKVDKVVYEKE
chain 3: MAYADSPENAIAVIKQRTALMNRCLSQHKLMESLQHTSIMLTELRNPNLSPKKYYELYVIIFDSLTNLSTYLIENHPQNHHLADLYELVQYTGNVVPRLYLMITVGTSYLTFNEAPKKEILKDMIEMCRGVQNPIRGLFLRYYLSQRTKELLPEDDPSFNSQFIMNNFIEMNKLWVRLQHQGPLRERETRTRERKELQILVGSQLVRLSQIIDDNFQMYKQDILPTILEQVIQCRDLVSQEYLLDVICQVFADEFHLKTLDTLLQTTLHLNPDVSINKIVLTLVDRLNDYVTRQLEDDPNATSTNAYLDMDVFGTFWDYLTVLNHERPDLSLQQFIPLVESVIVLSLKWYPNNFDNLNKLFELVLQKTKDYGQKNISLESEHLFLVLLSFQNSKLQLTSSTTAPPNSPVTSKKHFIFQLISQCQAYKNILALQSISLQKKVVNEIIDILMDREVEEMADNDSESKLHPPGHSAYLVIEDKLQVQRLLSICEPLIISRSGPPANVASSDTNVDEVFFNRHDEEESWILDPIQEKLAHLIHWIMNTTSRKQTMKNKIQFSLEAQLEILLLIKSSFIKGGINVKYTFPAIITNFWKLMRKCRMIQEYLLKKRPDNKTLLSHYSNLLKQMFKFVSRCINDIFNSCNNSCTDLILKLNLQCAILADQLQLNEISYDFFSQAFTIFEESLSDSKTQLQALIYIAQSLQKTRSLYKEAYYDSLIVRCTLHGSKLLKKQDQCRAVYLCSHLWWATEISNIGEEEGITDNFYRDGKRVLECLQRSLRVADSIMDNEQSCELMVEILNRCLYYFIHGDESETHISIKYINGLIELIKTNLKSLKLEDNSASMITNSISDLHITGENNVKASSNADDGSVITDKESNVAIGSDGTYIQLNTLNGSSTLIRGVVATASGSKLLHQLKYIPIHHFRRTCEYIESQREVDDRFKVIYV
With B2 the “stoichiometry N” value (native gel or EMSA) was 2 and 4.

B3: retromer^PISA-mClover (Vps26/Vps29-mClover/Vps35^PISA) (complex, S. cerevisiae)
chain 1: B2 chain 1
chain 2: B2 chain 2
chain 3: B2 chain 3 with D671A, L722A, K726A, R775A
B3: binds (native gel or EMSA).
